Data set [1] concerns the molecule itself. The data set can be described thus: co-sedimentation; sedimentation (pelletation) assay of single purified PB1 domains by ultracentrifugation; soluble and pellet fractions on SDS-PAGE.
In data set [2] the target is T1, MBP-tagged wild-type AtNBR1–PB1^1–94 (Arabidopsis thaliana, UniProt Q9SB64 1-94).
T1 construct: NBR1 autophagy receptor, Arabidopsis thaliana (AtNBR1), residues 1-94 (PB1 domain); Held on amylose resin in the pull-down; also called MBP–AtNBR1–PB1; source: E. coli BL21 (DE3), expressed as described for AtNBR1–PB1, buffer-exchanged; not shown: MBP, N-terminal, kept
T1 sequence (looked up): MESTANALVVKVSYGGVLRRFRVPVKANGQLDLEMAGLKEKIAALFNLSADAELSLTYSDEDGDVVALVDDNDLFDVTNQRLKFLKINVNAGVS
The data set can be described thus: pull-down; MBP–AtNBR1–PB1 on amylose resin, 4:1 molar excess of AtNBR1–PB1 (mutant); wash 15 mM HEPES pH 7.5, 500 mM NaCl; eluted with 30 mM maltose; SDS-PAGE. The note with it: both partners purified.

Data set [3] deals with the molecule itself. As to the kind of experiment: co-sedimentation; co-pelleting assay: p62-PB1^1–122 with His6-tagged PB1 partner, 1 h on ice, 49,000 g, 4 °C, 30 min; pellet and supernatant on SDS-PAGE, Coomassie.
A further data set deals with T2, MEKK3^43–127 (MEKK3–PB1) (UniProt Q99759 43-127).
T2 construct: MEKK3, residues 43-127 (PB1 domain); The His6 tag was kept for the gold-labelling and co-pelletation experiments; source: E. coli BL21 (DE3), expressed from pETM11, purified; not shown: His6, N-terminal, kept
T2 sequence (looked up): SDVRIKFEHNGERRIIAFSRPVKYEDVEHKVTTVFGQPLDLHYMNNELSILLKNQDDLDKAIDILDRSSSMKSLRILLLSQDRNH
The data set can be described thus: not stated; binding of NBR1–PB1 to MEKK3 'also measured'; method not given. The note with it: both partners purified.

For orientation: Kd means a measure of binding affinity in units of concentration. A lower Kd goes with higher affinity.

B1: AtNBR1^1–94 (AtNBR1–PB1) (domain or fragment, Arabidopsis thaliana, UniProt Q9SB64 1-94, looked up)
chain: MESTANALVVKVSYGGVLRRFRVPVKANGQLDLEMAGLKEKIAALFNLSADAELSLTYSDEDGDVVALVDDNDLFDVTNQRLKFLKINVNAGVS
notes: NBR1 autophagy receptor, Arabidopsis thaliana (AtNBR1), residues 1-94 (PB1 domain); Forms helical filaments; also called AtNBR1–PB1^1–94; NBR1^1–94 from Arabidopsis thaliana; source: E. coli BL21 (DE3), purified (Ni-NTA, 3C protease cleavage, Talon resin); not shown: His6, N-terminal, cleaved; MBP, N-terminal, cleaved
Turning to B1, the binding result in data set [1] and in data set [2] was “binds” in each case.

B2: TFG1^1–95 (Trk-fused gene 1, TFG1–PB1) (domain or fragment, human, UniProt Q92734 1-95, looked up)
chain: MNGQLDLSGKLIIKAQLGEDIRRIPIHNEDITYDELVLMMQRVFRGKLLSNDEVTIKYKDEDGDLITIFDSSDLSFAIQCSRILKLTLFVNGQPR
notes: TFG1 (Trk-fused gene 1), human, residues 1-95 (PB1 domain); source: E. coli BL21 (DE3), purified (Ni-NTA, 3C protease cleavage, Talon resin); not shown: His6, N-terminal, cleaved; MBP, N-terminal, cleaved
Take B2: the binding result in data set [1] is listed as “binds”.

B3: p62^1–102 (domain or fragment, human, UniProt Q13501 1-102, looked up)
chain: MASLTVKAYLLGKEDAAREIRRFSFCCSPEPEAEAEAAAGPGPCERLLSRVAALFPALRPGGFQAHYRDEDGDLVAFSSDEELTMAMSYVKDDIFRIYIKEK
notes: p62/SQSTM1, human, residues 1-102 (PB1 domain); also called p62 PB1 domain 1–102; source: expressed and purified
On to B3, for which, in data set [1], the binding result was “binds”.

B4: p62-PB1^1–122 (p62/SQSTM1 residues 1–122) (domain or fragment, human, UniProt Q13501 1-122, looked up)
chain: MASLTVKAYLLGKEDAAREIRRFSFCCSPEPEAEAEAAAGPGPCERLLSRVAALFPALRPGGFQAHYRDEDGDLVAFSSDEELTMAMSYVKDDIFRIYIKEKKECRRDHRPPCAQEAPRNMV
notes: Forms helical filaments; also called p62-PB1 filaments; source: E. coli BL21 (DE3), purified (Ni-NTA, 3C protease cleavage, Talon resin); not shown: His6, N-terminal, cleaved; MBP, N-terminal, cleaved
Take B4: the binding result in data set [3] is “binds”.

B5: NBR1^1–85 (human NBR1–PB1) (domain or fragment, UniProt Q14596 1-85, looked up)
chain: MEPQVTLNVTFKNEIQSFLVSDPENTTWADIEAMVKVSFDLNTIQIKYLDEENEEVSINSQGEYEEALKMAVKQGNQLQMQVHEG
notes: NBR1, human, residues 1-85 (PB1 domain); The His6 tag was kept for the gold-labelling and co-pelletation experiments; also called HsNBR1^1–85; wild-type NBR1; source: E. coli BL21 (DE3), expressed from pETM11, purified; not shown: His6, N-terminal, kept
Molecule B5 yielded a Kd in the data set with MEKK3^43–127 (MEKK3–PB1) of 13.3 µM.

The values above are taken from article PMC6978347, “Structural basis of p62/SQSTM1 helical filaments and their role in cellular cargo uptake” (Nature Communications, 2020).
